Data from PMC10010047.

Molecular target: insulin growth factor-1 receptor (IGF1R) (mouse (endogenous in mouse heart))
Test: BLI

B1: recombinant mouse SIRPα Fc chimera protein (rSIRPα) (Fc fusion)
chain: KELKVTQPEKSVSVAAGDSTVLNCTLTSLLPVGPIRWYRGVGPSRLLIYSFAGEYVPRIRNVSDTTKRNNMDFSIRISNVTPADAGIYYCVKFQKGSSEPDTEIQSGGGTEVYVLAKPSPPEVSGPADRGIPDQKVNFTCKSHGFSPRNITLKWFKDGQELHPLETTVNPSGKNVSYNISSTVRVVLNSMDVNSKVICEVAHITLDRSPLRGIANLSNFIRVSPTVKVTQQSPTSMNQVNLTCRAERFYPEDLQLIWLENGNVSRNDTPKNLTKNTDGTYNYTSLFLVNSSAHREDVVFTCQVKHDQQPAITRNHTVLGFAHSSDQGSMQTFPDNNATHNWN
In the case of B1, the Kd is reported as 147 µM.
